Data from paper PMC3484714 (Journal of the American Chemical Society, 2012).
Where two headings read alike, the source gives them in different places.

B1: methyltransferase (MeTr) from Moorella thermoacetica, homodimer (enzyme, UniProt Q46389 1-262, looked up)
chain: MLIIGERINGMFGDIKRAIQERDPAPVQEWARRQEEGGARALDLNVGPAVQDKVSAMEWLVEVTQEVSNLTLCLDSTNIKAIEAGLKKCKNRAMINSTNAEREKVEKLFPLAVEHGAALIGLTMNKTGIPKDSDTRLAFAMELVAAADEFGLPMEDLYIDPLILPANVAQDHAPEVLKTLQQIKMLADPAPKTVLGLSNVSQNCQNRPLINRTFLAMAMACGLDAAIADACDEALIETAATAEILLNQTVYCDSFVKMFKTR
B2: corrinoid iron-sulfur protein (CFeSP) from Moorella thermoacetica, heterodimer of large and small subunit (complex)
chain 1: MPLTGLEIYKQLPKKNCGECGTPTCLAFAMNLASGKASLDSCPYVSDAAREALDAAAAPPIAKVVLGAGPTAVEMGDETELFRHDKRFYHETAIAIQVSDNLSSEELKAKVEAINGLNFDRVGQHYTIQAIAIRHDADDPAAFKAAVASVAAATQLNLVLMADDPDVLKEALAGVADRKPLLYAATGANYEAMTALAKENNCPLAVYGNGLEELAELVDKIVALGHKQLVLDPGARETSRAIADFTQIRRLAIKKRFRSFGYPIIALTTAANPLDEVLQAVNYVTKYASLVVLRTDAKEHLLPLLSWRQNLYTDPQVPIRVEEKLNEIGAVNENSPVYVTTNFSLTYYSVEGEIESTKIPSYLLSVDTDGLSVLTAYADGKFEAEKIAAVMKKVDLDNKVKRHRIIIPGAVAVLKGKLEDLTGWEVIVGPREASGIVAFARANLAS
chain 2: MAVQILRDRSRAAVQKVVLGATKDQGGTRSHTIVVGGDAALPFHHFEGEIVNRPVIGMEVQDIVPDWPDVLKDPFTDVINEPGRWAQKCVAEYGADLIYLKLDGADPEGANHSVDQCVATVKEVLQAVGVPLVVVGCGDVEKDHEVLEAVAEAAAGENLLLGNAEQENYKSLTAACMVHKHNIIARSPLDINICKQLNILINEMNLPLDHIVIDPSIGGLGYGIEYSFSIMERIRLGALQGDKMLSMPVICTVGYEAWRAKEASAPVSEYPGWGKETERGILWEAVTATALLQAGAHILLMRHPEAVARVKENIDQLMVSNAY

How the values were obtained:
SAXS = target: the molecule itself; assay: SAXS
[1] = target: B1; assay: SAXS
[2] = target: B1; assay: SAXS; remark: listed apart in the source
[3] = target: B1; assay: ITC

Binder | stoichiometry N (SAXS) | stoichiometry N [1] | stoichiometry N [2] | KD of the first binding event [3] [µM] | KD of the second binding event [3] [µM] | dH (1:1 complex) [3] [kcal/mol]
B1 | 2 | – | – | – | – | –
B2 | – | 2 CFeSP heterodimer per MeTr homodimer | 1 CFeSP heterodimer per MeTr homodimer | 7.7 | 111 | 4.9
